The values that follow come from publication PMC12282130.

In the experiment the target is PlMYB73-nLUC (Paeonia lactiflora).

On to cLUC-PlMYB70 (natural protein), for which the Dual-LUC reporter in N. benthamiana leaves: activation of PlTPS1pro (LUC/REN) by PlMYB73 together with PlMYB70, against PlMYB70 alone worked out at 3.45 fold.
